biological target: GPI-anchored urokinase receptor (uPAR) on U937 cells (human (endogenous in U937)) (UniProt Q03405); assay: radioligand binding
Chain of UniProt Q03405 (Q03405 23-305): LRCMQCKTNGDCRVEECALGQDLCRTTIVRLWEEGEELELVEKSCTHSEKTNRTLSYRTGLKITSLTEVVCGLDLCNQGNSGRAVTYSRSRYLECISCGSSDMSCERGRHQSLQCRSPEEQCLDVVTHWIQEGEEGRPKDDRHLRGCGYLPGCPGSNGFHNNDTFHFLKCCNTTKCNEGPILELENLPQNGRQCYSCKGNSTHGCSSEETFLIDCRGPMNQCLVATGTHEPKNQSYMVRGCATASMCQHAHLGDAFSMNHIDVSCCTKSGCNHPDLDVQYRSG

Substance | IC50 [nM]
histidine-tagged pro-uPA with Ser138 and Ser303 replaced by Glu (enzyme) | 0.4
histidine-tagged pro-uPA with Ser138 replaced by Glu (enzyme) | 0.4
histidine-tagged wild-type pro-uPA (enzyme) | 0.4
human urinary uPA (enzyme) | 0.4

From article PMC2139889
